Data on three molecules can be found in publication PMC3669411, “Characterization of Flavin-Based Fluorescent Proteins: An Emerging Class of Fluorescent Reporters” (PLoS ONE, 2013).

One assay has as its target T1, iLOV (Arabidopsis thaliana, UniProt P93025, S394T/S409G/C426A/I452T/F470L/M475V).
T1 construct: gene PHOT2; primers give start MIEKNFVI, end LDGSDHV
Description: absorbance at […] nm vs Bradford total protein, as purified. The class given is binding. The conditions noted are these: FMN-bound fraction of purified protein; noncovalent.

In assay [1] the target is EcFbFP, FMN-based fluorescent protein derived from the N-terminal LOV domain of Bacillus subtilis YTVA (E. coli codon-optimized gene) (Bacillus subtilis) (UniProt O34627). Description: SEC; Superdex 200 gel filtration on AKTA FPLC, calibrated with globular protein standards; 0.15 M NaCl (methods name phosphate buffered saline); oligomeric state = estimated mass divided by calculated monomer mass (110 Da per amino acid); mean of duplicates.

Assay [2] has the same target. Kind of assay: SEC; Superdex 200 gel filtration on AKTA FPLC, calibrated with globular protein standards; 0.5 M NaCl; oligomeric state = estimated mass divided by calculated monomer mass (110 Da per amino acid); mean of duplicates.
Assay [3] has the same target. Kind of assay: SEC; Superdex 200 gel filtration on AKTA FPLC, calibrated with globular protein standards; 1 M NaCl (20 mM Tris hydrochloride, 1 M NaCl, pH 8.0); oligomeric state = estimated mass divided by calculated monomer mass (110 Da per amino acid); mean of duplicates.
The target of assay [4] is PpFbFP, FMN-based fluorescent protein from Pseudomonas putida (Pseudomonas putida) (UniProt Q88JB0). Description: SEC; Superdex 200 gel filtration on AKTA FPLC, calibrated with globular protein standards; 0.15 M NaCl (methods name phosphate buffered saline); oligomeric state = estimated mass divided by calculated monomer mass (110 Da per amino acid); mean of duplicates.
For assay [5] the target is unchanged. Kind of assay: SEC; Superdex 200 gel filtration on AKTA FPLC, calibrated with globular protein standards; 0.5 M NaCl; oligomeric state = estimated mass divided by calculated monomer mass (110 Da per amino acid); mean of duplicates.
The target is the same in assay [6]. Kind of assay: SEC; Superdex 200 gel filtration on AKTA FPLC, calibrated with globular protein standards; 1 M NaCl (20 mM Tris hydrochloride, 1 M NaCl, pH 8.0); oligomeric state = estimated mass divided by calculated monomer mass (110 Da per amino acid); mean of duplicates.

T1 sequence (P93025 387-496 S394T/S409G/C426A/I452T/F470L/M475V): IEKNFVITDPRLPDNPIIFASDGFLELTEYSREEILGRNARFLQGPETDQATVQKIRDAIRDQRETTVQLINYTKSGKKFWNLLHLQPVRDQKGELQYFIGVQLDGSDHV

As to `Cc1cc2nc3c(=O)[nH]c(=O)nc-3n(C[C@H](O)[C@H](O)[C@H](O)COP(=O)(O)O)c2cc1C` [FMN], the Fholo on iLOV came to 0.39±0.01.
A word on the stoichiometry N: it is the number of molecules, sites or subunits per partner or assembly. Turning to “EcFbFP, FMN-based fluorescent protein derived from the N-terminal LOV domain of Bacillus subtilis YTVA (E. coli codon-optimized gene) (from UniProt O34627 20-147) (domain or fragment)”, the stoichiometry N in assay [1] was 1.9; in assay [2], 1.7; in assay [3], 1.6.
“PpFbFP, FMN-based fluorescent protein from Pseudomonas putida (from UniProt Q88JB0 1-151) (natural protein)”: the stoichiometry N in assay [4] is 1.9; in assay [5], 1.7; in assay [6] it was 1.5.
